Reference: patent US20230041661A1 (Bicycle, published 2023)
Numbered stars: 1 amine (or outer) side, 2 acyl side, 3 side chain; on linkers, the order of the positions; unused ones are H or OH. Bridge positions count the residues as written; N and C are the ends. Ends that are not written are not given here. TAST = 1,4,7-tris(vinylsulfonyl)-1,4,7-triazonane scaffold, O=S(=O)(CC[*:1])N1CCN(S(=O)(=O)CC[*:2])CCN(S(=O)(=O)CC[*:3])CC1

Biological target: T1, Human IL-17A (human, UniProt Q16552 24-155)
T1 construct: also called Interleukin-17; CTLA-8
T1 sequence (looked up): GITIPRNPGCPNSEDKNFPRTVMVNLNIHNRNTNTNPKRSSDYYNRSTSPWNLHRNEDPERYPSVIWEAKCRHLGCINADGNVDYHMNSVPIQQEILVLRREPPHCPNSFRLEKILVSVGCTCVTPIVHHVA
Experiment: fluorescence polarisation competition, 75 nM human IL-17A, 1 nM tracer BCY13196 as competitor, mean of n=3, Cheng Prusoff fit
Method: Affinity determination by fluorescence polarization (FP) competition. Bicycles were screened to determine affinity (Ki) in a fluorescence polarisation assay where in competition with a bicycle labelled with fluorescein (referred to as tracer) with a known affinity for IL-17A. Peptides were diluted to an appropriate concentration in assay buffer (PBS+0.01% Tween20, adjusted to pH7.4 using NaOH (1M)) with a maximum of 1% DMSO, then serially diluted 1 in 2 into assay buffer. Into black 384-well low volume plates, […] of diluted peptide was added to the plate followed by […] of IL-17A at a fixed concentration (75 nM IL-17A for tracer BCY13196, 50 nM IL-17A for tracer BCY13351), then […] tracer added to a final concentration of 1 nM. Measurements were conducted on a BMG PHERAstar FS equipped with an “FP 485 520 520” optic module which excites at 485 nm and detects parallel and perpendicular emission at 520 nm. The PHERAstar FS was set at 25° C. with 200 flashes per well and a positioning delay of 0.1 second, with each well measured at 5 to 10 minute intervals for 60 minutes. The gain used for measurements was determined at the point of experiment on a tracer alone well. […]
Selected peptide ligands of the invention were tested in the above mentioned IL-17A human fluorescence polarization (FP) competition assay and the results are shown in Table 1: […]

- Ki: 313 nM
B1: BCY13059 (peptide)
peptide: ACPQDLELCTFLFGDCA
modifications: linker 2-9-16 via TAST
notes: Synthetic bicyclic peptide cyclised on TAST
